Measurements: a protein production outcome set (Wang et al. 2014)

Assay: label from the status in PepcDB records

Row | Sequence | protein production
1 | MEMYFKRMKDEWTGLVEQADPPIRAKAAEIAVAHAHYLSIEFYRIVRIDPHAEEFLSNEQVERQLKSAMERWIINVLSAQVDDVERLIQIQHTVAEVHARIGIPVEIVEMGFRVLKKILYPVIFSSDYSAAEKLQVYHFSINSIDIAMEVMTRAFTFSDSSASKEDENYRIFSLLENAEEEKERQIASILSWEIDIIYKILLDSDLGSSLPLSQADFGLWFNHKGRHYFSGIAEVGHISRLIQDFDGIFNQTMRNTRNLNNRSLRVKFLLQIRNTVSQIITLLRELFEEVSRHEVGMDVLTKLLNRRFLPTIFKREIAHANRTGTPLSVLIIDVDKFKEINDTWGHNTGDEILRKVSQAFYDNVRSSDYVFRYGGDEFIIVLTEASENETLRTAERIRSRVEKTKLKAANGEDIALSLSIGAAMFNGHPDYERLIQIADEALYIAKRRGRNRVELWKASL | failed
2 | MPISEDLKQAIRQRARYICEYCHSPERLSANRFTIDHVIPKSLGGSDAFNNLALACRRCNERRYNFVASIDPQTKTIVAIFNPRQQNWAEHFIWTNRGIIIQGTTTTGRATCIRLDLNDTRYPEEDSIQETRRFWLKTGLHPPIDDPCKNLEHHHHHH | not failed
3 | MTKITVLSGKGGTGKTTVSVNMAKALSESYRVQLLDADVEEPNDHIFFNVDVSFEEPVHLMIPVVDNSVCIRCGECASTCQFGAISVFPSGTFVFESLCHGCGACSIMCPVNAISERPKEIGKIRFGTADGNISFGMGILNIGERTGVPVIRKLKKHIDEKADVVIVDAPPGTSCPVVESLRNTDFALLVTEPTAFGLHDLKLAVELTKEMGIPSGIVVNRYIPGNTIIEEFADEEGIPVLLKIPFKREIASLCAEGKLIVEAFQDMKKDFLELFEKIEVMVRLEHHHHHH | not failed
4 | MLSELAKQFSTQIQTFFYLIMLINGLLHFIFAGAVARDAGNLYRLGQKPVLVSAPTWAFATLIGGVITATIYWLLHHSTLTRPTMREIRYDKA | failed
5 | MTRLAFVRKKEKNCGQCRICEVSCPMGIETENAEKYKGECISCIKCVEICPRYNMQLNFANQPVNPRYTSSLTVAGLFAVFSALSFLPSAKKIDTAKYNAIPSFADEDYQTDEENENINSSDNKQVETQQDYQAEIAQNNSQEANTSQNQISDQAQENAMTSKYQQNQSAAESYNSTETNQKSANVQSKTFEQAAENSQKTSLEKSQGSVQNSTYPVSSSNSSDESQQENVQANLSNATETSTQNFKVSNNTSETPKGISKIYKDGTYTGEGFGYRPGLVVEVTIKDDKITKIKIVSHNETQSFAQLPFEIIPQEIIQNQSTNVDIVSGATRTSYGIIMAVEDALNKAKIENESSLQN | failed
6 | MSELVRKLSGTAPNPAFPRGAVDTQMHMYLPGYPALPGGPGLPPGALPGPEDYRRLMQWLGIDRVIITQGNAHQRDNGNTLACVAEMGEAAHAVVIIDATTTEKDMEKLTAAGTVGARIMDLPGGAVNLSELDAVDERAHAADWMVAVQFDGNGLLDHLPRLQKIRSRWVFDHHGKFFKGIRTDGPEMAALLKLIDRGNLWFKFAGVYESSRKSWPYADVAAFSRVIAAHAPERIVWGTNWPHNSVRETAAYPDDARLAELTLGWLPDEAARHRALVENPEALFKLSPVKAT | failed
7 | MFQAIQQKLLLMPSGKKNLLSLGMKTAITRVFSALFAFLLTLIVSRTTDASTSGQFFFLFNLVSLTAIISQRGFDVALVRFNAIAFSNGDIQQQSDNYWTALTRSITFCFMAAVTLFVGFYLFPNQLNQTNSPIVAITLALMCVPFLVLGQTNSRVLQASKMVVPSLFALQLGVSVLMVLFIMGLSTLHLQNINSLMTALLLASLIVSIASTTKWFSSGQYQKPTPTTNIELISSAKQVWIGSIFTNILQWGSIVIAGFFISTTELGLLAAAQRTSLLIGFVLITINFVVAPMFASLFKEGKLDKLRNLSRWACRANIGAALLPVLVCTLFPEFVMQLFGDEFLAAAPLLVVLSLGQLVNIATGSVGFLLLMSGHERTMKYITICSGTISIALLVFLSQSYGVLGAAWAMAIGMAIQNLAALYFVKRYLGFFPVG | failed
8 | MASEAVNVWSRTSLILIMLSAAILVVAVGAVMNSGLVESLQVPLWEKWVILVFLFALIIGIIGPLSGVGGGVIFVGLGMAILPFNVDFIRGAGLVAALSTSLNSAPYFTKKGLANLRIVAPLVSVSTIFSVFGGVIGLWISNSFPEGSYYVKMSLGVVLLVLLLILSRSKNVEYPPPREKKDRLSEMIDLTGGWYEPTLNRIVTYEASNLPLAMLAFSGVGFLAGMFGLGAGWANVPILNLVMGLPLKAAVASSMLILAINDSASLWVYLANGAVLPIVVVPVVLGISIGSRIGSRLAAKTKPKVIKRLVIALIALSGVVNIIQGLSGIGLLNL | failed
9 | MANRLRTGIDVLDRKLDGGIPAGSIVVLSAQPASQAELFLYELTATRGTLWLSLDRTAESVIASIEQTPANTGDPTVRHISGEAPLDNAGKLVSALPETSNLIVDPLDVLEAQEPHSRFRAFMNDLQNHIVNTGSLAIVHCLDGRDVPPLRDTTEHFADVVFQLNTTTNGDEVENRLAIPKFRGGRAPTDIIKLNLVEEVSIDTSRDIALEHHHHHH | failed
10 | MNEVKESLRSIEQKYKLFQQQQFTFIAALEHCRENAHDKIRPISSIEQVQSYMEHYCNNSTHRRILIMFMDICSELSKLCQHFEALHSGTPVTNSLLEKCKTLVSQSNDLSSLRAKYPHEVVNHLSCDEARNHYGGVVSLIPIVLDFMKEWIAHSEKLPRKVLQHGTT | failed
11 | MGLLGIVIALGAMIWLAFRGWSILIIAPAAALLAAATAGEPLLAHWTQTFMGTAAGFVAQFFPLFLLGALFGKLMDDSGSVTAIAEWMTRVLGPQRAMLAVVLAGALLTYGGVSLFVAFFVLAPMAHALFRAADIPPRLMPAAIVLGTSTFTMSALPGTPAIQNAIPMPFFSTTPFAAPGLGIVASAIMLTFGLWWLSQRENAARRRGEGYAIAEEEASPDEVAERPLIRELASTAREFDPAEALQGSRSDEPPAAFIALLPLAVVIVVNLLMSFVVLPRVDADYLGLPEWGATTLQAVSGVWSVIVALTAAILCLIALNFRRLPELRDSMGAGAHAAALPVLSVASLVGFGAVVASLPGFGVVRDWVLSIEGGPLVSLAVATNVLSALTGSASGGLTIALDALGGTYLTRAFDLGIDPAILHRVAVMSAGTLDTLPHNGAVVTLLAVCGATHRESYGGIVMVGIVGPMLALAAVIALGSWVGSF | failed
12 | MREIPLVSVALATYNGERYLRRQLDSVLAQTYRNIEIVVSDDCSRDGTVAILEEYRRAHGITFRVNERNLGFVRNFERALAGCRGEFIALSDQDDIWLPEKIETLVREIGPHSLIYTDALLIDGDDQPLPGSLVEVSGVRPVSGTCFEYFVCNNCVTGCTAMLRRDLLATALPIPEAETYHDWWLAVAASRRNGVVYHAAKLTEYRQHAHNYTGANVRAGLPARIAAHLMGKTAAEKRGYYELLANRARRYRAMADRLNLTPAERSFLEEIGEYAESLLSGGNRMKTFALALKYRETLFPAAGRWEKLLFVFSKLIAARAILEHHHHHH | not failed
13 | MNEILHWKRNFFLLALGRFVSILGSSVQAVAIPLFVLDLTHSGSAVALMTVAYMVPRILFTPIAGIVGDRGDRKFLMVSMDFLRGFLICFLALLAFRNSITLPVLYVSQIAMAIMDNLFDIPTGAMFPDIVPQDFLMRANSIMGMVRIFPQILGPALGGVIYGFYGIAIVFLVNGVSFVLSAISEIFIVYSRKVEKKPAKFSQILEDLKEGFLFIWNHELIRTILIFALFLNLLISPLFMVVYPYTIREVMKFSAQEFGFLETSFTLGALLGNFLIASYLSKKNMWKAMKISIFLFELPIVFLGFLVMPDFSLNRLVLFSLFFITFLIMGFLNPIINVPLDTAFQKMTPSHIRARAFSFLILVANGVTPLGSVLYGYLVDRVPVHFLYYVVGALSFLVAVLLLVALRGKELPT | failed
14 | MAGDVEGFCSSIHDTSVSAGFRALYEEGLLLDVTLVIEDHQFQAHKALLATQSDYFRIMFTADMRERDQDKIHLKGLTATGFSHVLQFMYYGTIELSMNTVHEILQAAMYVQLIEVVKFCCSFLLAKICLENCAEIMRLLDDFGVNIEGVREKLDAFLLDNFVPLMSRPDFLSYLSFEKLMSYLDNDHLSRFPEIELYEAVQSWLRHDRRRWRHTDTIIQNIRFCLMTPSSVFEKVGTFESDRQDSSI | failed
15 | MMKLLSFDEACQWFDSLPAHKRIATLSPYYVLLDALRDTRLLATYIGFRQGDVFWMHSVHCSAAMAGEVIDLQSPYGYGGPISNCDDPVFLNMVWDLYVEFCARQGWLAEFVRFHPLGGVSSSYGGTIVVDRLTVAIDLTGPNIRSIYSTRCRTAVRKAINNGLNVRVGSERELREIFPHFYRDGMRAIAADKFYLFNDLYFSGFSTWKCATLLICHCDDDWLSAGIFLKDGNVMEYHLSATTPAGRNLGATNLLLDAAAHLGQEQGCSFLYLGGGTDSEKNNPLLFFKSGFSAATYPFLIGFTAFNQDKYQALREKFISDHKPTDRFLFYR | failed
16 | MKIKAISIDIDGTITYPNRMIHEKALEAIRRAESLGIPIMLVTGNTVQFAEAASILIGTSGPVVAEDGGAISYKKKRIFLASMDEEWILWNEIRKRFPNARTSYTMPDRRAGLVIMRETINVETVREIINELNLNLVAVDSGFAIHVKKPWINKGSGIEKASEFLGIKPKEVAHVGDGENDLDAFKVVGYKVAVAQAPKILKENADYVTKKEYGEGGAEAIYHILEKFGYL | not failed
17 | LLGELNEWLQSCRSLEELFAMVSRFMEHILPDAEGSLYVYSNSRDVLDGSAGWNGGAFKDHIHPEACWGLRRGRSYEYGASEVDFVCDHAEPHDGRPYFCFPVLAHGETVGLMHLRAQPGAEAEFSASKRLAQMCAEQISMAIANVRMRDQLHDQ | failed
18 | MHDGSVFYTIFLIFAGAAFFSTLVLYTKQSLLVAYITLGAILGPWGFKLVSDVTVVKQIGDIGIVFLLFLLGLHLQPQNLIHMLRKVTWIAIVSSILFAALAYGIGRWFGLTVTESLILGGAMMFSSTIIGLKLLPTTILHHQHTGEVMISVLLMQDVIAIVLLILLNSAHQDGNLSISDFILVIIALPALCLFSFLFERYILIKLLARFDRTQEYVFLLSIGWCLGISVLAQTIGLSEDIGAFIAGVALASSPISLFIAESLKPLRDFFLVMFFFSIGATFNFGFGAQVVIPAVILATLILIIKPLLFYILLARSGEKKQVAKEVGIRLGQGSEFSLLVASIALSTNLISEVASNLIQATTILTFIVSSYLVVLKYPTPIALSEKMRKD | failed
19 | MMAKIDVELKKLHQILVDRDYFYQVPDYQRPYVWDKDHLGALIDDLVGSYTNNREDEYFCGSIVIVENQKDKRWDVVDGQQRLTSFIILACTILRLYKHSLGQESKDFIEDSIYDRYDKEKERLKFLTAQNYNSIFENTVLNHLEFEDNIKKSELNKKFEENTYLRNAYYFKELLNESVENGSISDIDDFVKWFYEHIVLTRIICFEQDSAMQIFQVLNDRGQPLSPIDILKSSLMQEIKQDSEKRKDFITTWDKLVEACKSVEGVDIDLEDFFNMYLEYADPSTSKKRADKGLKKVFKDSKKDACGFIYEISEFMKAYTALLKKQDRYVYLLRYLPSRYWASILTTALYVKYPDFDALKKLLVSYYYQTWIAGGTITRIKQTSINIIKNVKSNKSVETIKELILNSIDSYNTFDQYLYNLWDSSSVYHSKWVRPVLALANYFMADEEKPHFIAMDAETQVEHILPQTPKRGSQWNADFDKEKREEWVNNIANLTLLKRKKNAHALNGDFDEKRKIYGGKDTSKVISCYDITKELYSNYRKWNEKSLQERYKSLYNTITPVLHIEGQEDDFEDDFDLE | failed
20 | MVSACGLIALGLDNQAARMAARLRDLAREWRALPPHAARRGAVAEQVAVLDRRHGLYSRALLLNYGALFAFVVTSLLWLGQAYWSVPPELPVLVFGLGVAMLAAMAVLVIASITLARSTIEAEAAEVLRERRAPPASGRPAPARG | failed
